Source: the nanobody polyreactivity screen of Harvey et al. (2022)

Assay: yeast display, Sf9 membrane polyspecificity reagent, FACS + sequencing; frameworks hold sequencing errors
Method in brief: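 Nanobodies came from a synthetic yeast display library in Saccharomyces cerevisiae BJ5465, induced with galactose for 36–48 hours and stained for 1 hour at 4 °C with 10% biotinylated, detergent-solubilized Sf9 membrane reagent. Cells were enriched on streptavidin microbeads and then FACS-sorted, with low and high (top ~1%) gates set on anti-HA fluorescence for expression and streptavidin fluorescence for reagent binding. Each polyreactivity label reflects the gate a clone came from. Genes were amplified by colony PCR, sequenced by MiSeq 2 × 250 and filtered by CDR length.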

Sequence | polyreactivity (PSR sort gate)
QVQLVESGGGLVQAGGSLRLSCAASGSIFGKNVMGWYRQAPGKERELVAAISRSGGRTYYADSVKGRFTISRDNAKNTVYLQMNSLKPEDTAVYYCAADGQPIGQQTYDYWGQGTQVTVSS | high polyreactivity
QVQLVESGGGLVQAGGSLRLSCAASGSIFGKYAMGWYRQAPAKERELVAAISDSGSITYYADSVKGRFTISRDNAKNTVYLQMNSLKPEDTAVYYCAAEVKYYQSFKYDYWGQGTQVTVSS | high polyreactivity
QVQLVESGGGLVQAGGSLRLSCAASGSIFGKYAMGWYRQAPGKERELVAAISWSGGSTYYADSVKGRFTISRDNAKNTVYLQMNSLKPEDTAVYYCAKRRVYYGSRYNYWGQGTQVTVSS | high polyreactivity
QVQLVESGGGLVQAGGSLRLSCAASGSIFGKYAMGWYRQAPGKERELVAAITIRGGSTYYADSVKGRFTISRDNAKNTVYLQMNSLKPEDTAVYYCNAVSKYYFGVDYWGQGTQVTVSS | high polyreactivity
QVQLVESGGGLVQAGGSLRLSCAASGSIFGLNAMGCYRQAPGKERELVAAISGGSTNYADSVKGRFTISRDNAKNTVYLQMNSLKPEDTAVYYCAARARRRYYYWGQGTQVTVSS | high polyreactivity
QVQLVESGGGLVQAGGSLRLSCAASGSIFGLYAMGWYRQAPGKERELVAAISSSGGTTYYADSVKGRFTISRDNEKNTVYLQMNSLKPEDTAVYYCATDYYDDVTIGYDYWGQGTQVTVSS | low polyreactivity
QVQLVESGGGLVQAGGSLRLSCAASGSIFGLYAMGWYRQAPGKERELVAAITDSTGSTSYADSVKGRFTISRDNAKNTVYLQMNSLKPEDTAVYYCAAGQGRWRHGFDYWGQGTQVTVSS | low polyreactivity
QVQLVESGGGLVQAGGSLRLSCAASGSIFGLYAMGWYRQAPGKERELVARITRSGGRTYYADSVKGRFTISRDNAKNTVYLQMNSLKPEDTAVYYCNKLLPSYVLPDDYWGQGTQVTVSS | low polyreactivity
QVQLVESGGGLVQAGGSLRLSCAASGSIFGNYVMGWYRQAPGKERELVAAIRWTGGSTYYADSVKGRFTISRDNAKNTVYLQMNSLKAEDTAVYYSIADSSDDYDYWGQGTQVTVSS | low polyreactivity
QVQLVESGGGLVQAGGSLRLSCAASGSIFGPNAMGWYRQSPGKERELVAAISWGGGSTYYADSVKARITISRDNAINTVYLQMNILKPEDTGVYYCNASGYHDTAVRYDYWGQGTQVTVSS | low polyreactivity
QVQLVESGGGLVQAGGSLRLSCAASGSIFGPYAMGWYRQAPGKERELVAAISTRGGRTYYADSVKGRFTISRDNAKNTVYLQMISLKPEDTAVYYCNDRRSDSRSYDYWGQGTQVTVSS | high polyreactivity
QVQLVESGGGLVQAGGSLRLSCAASGSIFGPYAMGWYRQAPGKERELVATITSGGRTYYADSVKGRFTISRDNAKNTVYLQLNSLKPEDTAVYYCAAAGKGRYHFRSTMDYWGQGTQVTVSS | high polyreactivity
QVQLVESGGGLVQAGGSLRLSCAASGSIFGPYAMGWYRQAPGKERELVAVISRSGGSTYYADSVKGRFTISRDNAKNTVYLQMNSLKPEDTAVYYCAAYRGPRADYYWGQGTHVTVSS | high polyreactivity
QVQLVESGGGLVQAGGSLRLSCAASGSIFGPYAMGWYRQAPWKERELVATSTYYADSVKGRFTISRDNAKNTVYLQMNSLKPEDTAVYYCAKTPYYSGYGWGYDYWGQGTQVTVSS | low polyreactivity
QVQLVESGGGLVQAGGSLRLSCAASGSIFGPYVMGWYRQAPGKERELVAAISKSGGSTYYADSVKGRFTISRDNAKNTVYLQMNSLKPEDTAVYYCATDYLGGGKRYYYWGQGTQVTVSS | high polyreactivity
QVQLVESGGGLVQAGGSLRLSCAASGSIFGPYVMGWYRQAPGKERELVAAITFSGGSTYYADSVKGRFTISRDNAKNTVYLQMNSLKPEDTAVYYCNARPYSYRGSKRMYYWGQGTQVTVSS | high polyreactivity
QVQLVESGGGLVQAGGSLRLSCAASGSIFGQYAMGWYRQAPGKERELVASISASAASTYYADSVKGRFTISRDNAMNTVYLQLNSLKPEDTAVYYCNATTRWIGYVTIDFDYWGQGTQVNVSS | low polyreactivity
QVQLVESGGGLVQAGGSLRLSCAASGSIFGRNAKGWYRQAPRKERELVAAINSGGSTNYADSVKGRFTISRDNAKNTVYLQMNSLKPEDTAVYYCAARTYSSGRYYGYVAFYYWGQGTQVTVSS | high polyreactivity
QVQLVESGGGLVQAGGSLRLSCAASGSIFGRNAMGWSRQAPGTERELVARISSRGGSTYYADSVKGRFTISRDNAKNTVYLQMNSLKPEDTAVYYCNRDRTWQTNDYWGQGTQVTVSS | high polyreactivity
QVQLVESGGGLVQAGGSLRLSCAASGSIFGRNAMGWYRQAPGKERELVAAITWRTGSTFYADSVKGRFTISRDNAKNTVYLQMNCLKPEDTAVYYCNAAGPAYSYYHWLWGDYNSWRQGTQVTVSS | low polyreactivity
QVQLVESGGGLVQAGGSLRLSCAASGSIFGRNAMGWYRQAPGKERELVAGMFYADSEKGRFTISRDNAKNTVYLQMNSLKPEDTAVYYCNADGTTDISNDNWYGYWGQGTQVTVSS | low polyreactivity

Sequence | polyreactivity (PSR sort gate)
QVQLVESGGGLVQAGGSLRLSCAASGSIFGRNTMGWYRPAPGKERELVAAISSGGRTYYADSVKGRFTISRDNAKITVYLQINSLKPEDTAVYYCAAALRRRRADFDYWGQGTQVTVSS | high polyreactivity
QVQLVESGGGLVQAGGSLRLSCAASGSIFGRNTMGWYRQAPGKERELVAAISSRGTSTYYADSVKGRFTISRDNAKNTVYLQMNSLKPEDTAVYYCAARVYPYNYWGQGTQVTVSS | high polyreactivity
QVQLVESGGGLVQAGGSLRLSCAASGSIFGRNTMGWYRQAPGKERELVAAISSSGGSTRYADSVKGRFTISRDNAKITVYLQMNSLKQEDTAVYYCNDRPRTIYVNRKYDYWGQCTQVTVSS | high polyreactivity
QVQLVESGGGLVQAGGSLRLSCAASGSIFGRYAKRWYRQAPGKERELVAAISWNGGSTYYADSVKGRFTISRDNAKKTVDLQMNSLKPEDPAVYYCAVLSWWTKLSRRFYYWGQGTQVTVSS | high polyreactivity
QVQLVESGGGLVQAGGSLRLSCAASGSIFGRYAMGWYRQAPGKERELVAAIDGGGSTNYADSVKGRFTISRDNAKNTVYVQMNSLKPEDTAVYYCATEAKAYRYYYRTRHYYYWGQGTQVTVSS | low polyreactivity
QVQLVESGGGLVQAGGSLRLSCAASGSIFGRYAMGWYRQAPGKERELVAAISWRGGSTYYADSVKGRFTISRDNAKNTVYLQMNRLKPEDTAVYYCAKSGTFYYPRYDYWGQGTQVTVSS | high polyreactivity
QVQLVESGGGLVQAGGSLRLSCAASGSIFGRYAMGWYRQAPGKERELVAAISWRGGSTYYADSVKGRFTISRDNAKNTVYLQMNSLKPEDTAVYYCNVPYRSGYSHRYDYWGQGTQVTVSS | high polyreactivity
QVQLVESGGGLVQAGGSLRLSCAASGSIFGRYTMGWYRQAPGKERELVAAISSSGGRTYYADSVKGRFTISRDNAKNTVFLQMNSLKPEDTAVYYCNNGYGYEYYWGQGTQVTVSS | low polyreactivity
QVQLVESGGGLVQAGGSLRLSCAASGSIFGRYVMGWYRQAPGKERELVARITQSGGSTYYADSVKGRFTISRDNAKNTVYLQMNSLKPEDTAVYYCAAATSWWWLYYWGQGTQVTVSS | high polyreactivity
QVQLVESGGGLVQAGGSLRLSCAASGSIFGSNAMGWYRQAPGKERELVASITSSGGSTHYADSVKGRFTISRDNAKNTVYLQMNSLKPEDTAVYYCATRAYGYYRWLYDYWGQGTQVTVSS | low polyreactivity
QVQLVESGGGLVQAGGSLRLSCAASGSIFGSNMGWYRQAPGKERELVAAISSRGGRTYYADSVKGRFTISRDNAKNTVYLQMNSLKPEDTAVYYCATRTFRGCRGYEYWGQGTQVTVSS | high polyreactivity
QVQLVESGGGLVQAGGSLRLSCAASGSIFGSYAMGWSRQAPGKERELVAAISKSGGNTYYADSVKGRFTISRDNAKNTVYLQMNSLKPEDTAVYYCAAYGFYRWRGYDYWGQGTQVTVSS | high polyreactivity
QVQLVESGGGLVQAGGSLRLSCAASGSIFGSYAMGWYRQAPGKEREFVAGIDQSGSSTYYADSVKGRFTISRDNAKNTVYLQMNSLKPEDTAVYYCNAVWYFYSTYRKYYYWGQGTQVTVSS | high polyreactivity
QVQLVESGGGLVQAGGSLRLSCAASGSIFGSYAMGWYRQAPGKERELVAAISGSGGRTYYADSVKGRFTISRDNAKNTVYFQMNSLKPEVTAVYYCAAAYPRVTYKYGYYWGLGTQVTVSS | high polyreactivity
QVQLVESGGGLVQAGGSLRLSCAASGSIFGSYAMGWYRQAPGKERELVADISRRGSSTYYADSVKGRFTISRDNAKNTVYLQMNSLKPEDTAVYYCNKVFARSLSSRYQAYDYWGQGTQVNVSS | high polyreactivity
QVQLVESGGGLVQAGGSLRLSCAASGSIFGSYAMGWYRQAPGKERELVAVITSASTNYADSVKGRFTISRDNAKNTVYLQMNSLKPEDTAVYYCNAALSHDFWNYRLGYWGQGTQVTVSS | low polyreactivity
QVQLVESGGGLVQAGGSLRLSCAASGSIFGSYAMGWYRQATGNERELVAAIRSSASTYYADSVKGRFTISRDNAKNTVYLQMYSLKPEDTAVYYCAAKFTSYGRSRYYSWGQGTQVTVSS | high polyreactivity
QVQLVESGGGLVQAGGSLRLSCAASGSIFGSYTMGWYRQAPGKERELVAAISLGGGSTYYADSVKGRFSISRDNAKNTVYLQMNSLKPEDTAVYYCAAGFTYPYDYWGQGTQVTVSS | low polyreactivity
QVQLVESGGGLVQAGGSLRLSCAASGSIFGSYVMVWYRQAPGKERELVAAISKSGGRTYYADSVKGRFTISRDNAKNTVYLQMKSLKPEDTAVYYCAVLPRVKDGTGGDYWGQGTQVTVSS | high polyreactivity
QVQLVESGGGLVQAGGSLRLSCAASGSIFGTNAMGWYRQAPGKERELVAAINSGGSTNYADSVKGRFTISRDNAKNTVYLQMNSLKPEDTAVYYCAADEGLWSPSRNAYDYDYWGQGTQVSVSS | low polyreactivity
